Measured values as given in patent publication US20240018254A1.

Target: FcγRIIIa-bio (UniProt P08637)
Assay: BLI (Fortebio), FcγRIIIa-bio on SA sensor, antibody 31.3-500 nM, 1:1 fit

Sequence of UniProt P08637 (P08637 17-208 limits assumed): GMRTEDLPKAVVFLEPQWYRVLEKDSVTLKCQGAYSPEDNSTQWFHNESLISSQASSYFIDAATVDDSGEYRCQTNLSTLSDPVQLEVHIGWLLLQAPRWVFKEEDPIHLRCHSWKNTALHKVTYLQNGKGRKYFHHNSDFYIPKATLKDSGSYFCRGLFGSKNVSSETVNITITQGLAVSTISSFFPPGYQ

Kd: 141 nM | koff: 0.0342 s⁻¹ | kon: 243000 M⁻¹ s⁻¹
Substance: MEDI9447 (Oleclumab) (antibody)
